Measurements as given in US20180291083A1 (IMMATICS BIOTECHNOLOGIES, published 2018).

Target: T1, HLA-B*44:02 (human)
T1 construct: Peptide-receptive MHC class I monomer made by UV cleavage of a UV-sensitive ligand
Test: UV ligand exchange ELISA; exchange yield grade
From the text: Candidate peptides for T cell based therapies according to the present invention were further tested for their MHC binding capacity (affinity). The individual peptide-MHC complexes were produced by UV-ligand exchange, where a UV-sensitive peptide is cleaved upon UV-irradiation, and exchanged with the peptide of interest as analyzed. Only peptide candidates that can effectively bind and stabilize the peptide-receptive MHC molecules prevent dissociation of the MHC complexes. To determine the yield of the exchange reaction, an ELISA was performed based on the detection of the light chain (β2m) of stabilized MHC complexes. The assay was performed as generally described in Rodenko et al. (Rodenko et al., 2006).
96 well MAXISorp plates (NUNC) were coated over night with 2 ug/ml streptavidin in PBS at room temperature, washed 4× and blocked for 1 h at 37° C. in 2% BSA containing blocking buffer. Refolded HLA-A*02:01/MLA-001 monomers served as standards, covering the range of 15-500 ng/ml. Peptide-MHC monomers of the UV-exchange reaction were diluted 100-fold in blocking buffer. Samples were incubated for 1 h at 37° C., washed four times, incubated with 2 ug/ml HRP conjugated anti-β2m for 1 h at 37° C., washed again and detected with TMB solution that is stopped with […]. Absorption was measured at 450 nm. Candidate peptides that show a high exchange yield (preferably higher than 50%, most preferred higher than 75%) are generally preferred for a generation and production of antibodies or fragments thereof, and/or T cell receptors or fragments thereof, as they show sufficient avidity to the MHC molecules and prevent dissociation of the MHC complexes.

B1: KELPGVKKY (peptide)
peptide: KELPGVKKY
- peptide exchange yield: 20 to 50%

B2: EENPGKFLF (peptide)
peptide: EENPGKFLF
- peptide exchange yield: 50 to 75%

B3: SESLPKEAF (peptide)
peptide: SESLPKEAF
- peptide exchange yield: 20 to 50%

B4: SESTFDRTF (peptide)
peptide: SESTFDRTF
- peptide exchange yield: 50 to 75%

B5: EENKPGIVY (peptide)
peptide: EENKPGIVY
- peptide exchange yield: 20 to 50%

B6: TEYPVFVY (peptide)
peptide: TEYPVFVY
- peptide exchange yield: 10 to 20%

B7: GENDRLNHTY (peptide)
peptide: GENDRLNHTY
- peptide exchange yield: 20 to 50%

B8: GEGAYGKVF (peptide)
peptide: GEGAYGKVF
- peptide exchange yield: > 75%

B9: EEEHGKGREY (peptide)
peptide: EEEHGKGREY
- peptide exchange yield: 20 to 50%

B10: EEFETIERF (peptide)
peptide: EEFETIERF
- peptide exchange yield: 20 to 50%

B11: GELPAVRDL (peptide)
peptide: GELPAVRDL
- peptide exchange yield: 20 to 50%

B12: AEHNFVAKA (peptide)
peptide: AEHNFVAKA
- peptide exchange yield: 50 to 75%

B13: SEYADTHYF (peptide)
peptide: SEYADTHYF
- peptide exchange yield: 50 to 75%

B14: NEIKVYITF (peptide)
peptide: NEIKVYITF
- peptide exchange yield: 50 to 75%

B15: AEYKGRVTL (peptide)
peptide: AEYKGRVTL
- peptide exchange yield: > 75%

B16: GELGGSVTI (peptide)
peptide: GELGGSVTI
- peptide exchange yield: 50 to 75%

B17: SQAPAARAF (peptide)
peptide: SQAPAARAF
- peptide exchange yield: 20 to 50%

B18: RENQVLGSGW (peptide)
peptide: RENQVLGSGW
- peptide exchange yield: 50 to 75%

B19: EYDLKWEF (peptide)
peptide: EYDLKWEF
- peptide exchange yield: 20 to 50%

B20: REYEYDLKWEF (peptide)
peptide: REYEYDLKWEF
- peptide exchange yield: 50 to 75%

B21: TEIFKEHNF (peptide)
peptide: TEIFKEHNF
- peptide exchange yield: 20 to 50%

B22: YEYDLKWEF (peptide)
peptide: YEYDLKWEF
- peptide exchange yield: 50 to 75%

B23: TEGKRYFTW (peptide)
peptide: TEGKRYFTW
- peptide exchange yield: 50 to 75%

B24: AEPLVGQRW (peptide)
peptide: AEPLVGQRW
- peptide exchange yield: 50 to 75%

B25: SESKTVVTY (peptide)
peptide: SESKTVVTY
- peptide exchange yield: 50 to 75%

B26: KEVPRSYEL (peptide)
peptide: KEVPRSYEL
- peptide exchange yield: 20 to 50%

B27: REYNEYENI (peptide)
peptide: REYNEYENI
- peptide exchange yield: 20 to 50%

B28: SEKETVAYF (peptide)
peptide: SEKETVAYF
- peptide exchange yield: 50 to 75%

B29: EEVTDRSQL (peptide)
peptide: EEVTDRSQL
- peptide exchange yield: 20 to 50%

B30: EVDASIFKAW (peptide)
peptide: EVDASIFKAW
- peptide exchange yield: 20 to 50%

B31: AELLAKELY (peptide)
peptide: AELLAKELY
- peptide exchange yield: 20 to 50%

B32: KEFEQVPGHL (peptide)
peptide: KEFEQVPGHL
- peptide exchange yield: 20 to 50%

B33: AEPGPVITW (peptide)
peptide: AEPGPVITW
- peptide exchange yield: 50 to 75%

B34: NEFPVIVRL (peptide)
peptide: NEFPVIVRL
- peptide exchange yield: 50 to 75%

B35: FEVESLFQKY (peptide)
peptide: FEVESLFQKY
- peptide exchange yield: 50 to 75%

B36: VEIAEAIQL (peptide)
peptide: VEIAEAIQL
- peptide exchange yield: 50 to 75%

B37: GENEDNRIGL (peptide)
peptide: GENEDNRIGL
- peptide exchange yield: 20 to 50%

B38: GELLGRQSF (peptide)
peptide: GELLGRQSF
- peptide exchange yield: 50 to 75%

B39: EEETILHFF (peptide)
peptide: EEETILHFF
- peptide exchange yield: 20 to 50%

B40: EEGDTLLHLF (peptide)
peptide: EEGDTLLHLF
- peptide exchange yield: 50 to 75%

B41: DEAQARAAF (peptide)
peptide: DEAQARAAF
- peptide exchange yield: 20 to 50%

B42: EEWMGLLEY (peptide)
peptide: EEWMGLLEY
- peptide exchange yield: > 75%

B43: SEYSHLTRV (peptide)
peptide: SEYSHLTRV
- peptide exchange yield: 20 to 50%

B44: VELDLQRSV (peptide)
peptide: VELDLQRSV
- peptide exchange yield: 20 to 50%

B45: NEVLASKY (peptide)
peptide: NEVLASKY
- peptide exchange yield: 10 to 20%

B46: KEIGAAVQAL (peptide)
peptide: KEIGAAVQAL
- peptide exchange yield: 50 to 75%

B47: QEIQSLLTNW (peptide)
peptide: QEIQSLLTNW
- peptide exchange yield: 50 to 75%

B48: EENGEVKEL (peptide)
peptide: EENGEVKEL
- peptide exchange yield: 20 to 50%

B49: SENEQRRMF (peptide)
peptide: SENEQRRMF
- peptide exchange yield: 50 to 75%

B50: SEDLAVHLY (peptide)
peptide: SEDLAVHLY
- peptide exchange yield: 20 to 50%

B51: VEDGLFHEF (peptide)
peptide: VEDGLFHEF
- peptide exchange yield: 50 to 75%

B52: KEYDFGTQL (peptide)
peptide: KEYDFGTQL
- peptide exchange yield: 20 to 50%

B53: TDKSFPNAY (peptide)
peptide: TDKSFPNAY
- peptide exchange yield: 10 to 20%

B54: HEIDGKALFL (peptide)
peptide: HEIDGKALFL
- peptide exchange yield: 20 to 50%

B55: AENAVSNLSF (peptide)
peptide: AENAVSNLSF
- peptide exchange yield: 20 to 50%

B56: QENMQIQSF (peptide)
peptide: QENMQIQSF
- peptide exchange yield: 50 to 75%

B57: REYEHYWTEL (peptide)
peptide: REYEHYWTEL
- peptide exchange yield: 50 to 75%

B58: AEIKQTEEKY (peptide)
peptide: AEIKQTEEKY
- peptide exchange yield: 20 to 50%

B59: EEPAFNVSY (peptide)
peptide: EEPAFNVSY
- peptide exchange yield: 20 to 50%

B60: GEIKEPLEI (peptide)
peptide: GEIKEPLEI
- peptide exchange yield: 20 to 50%

B61: AQNLSIIQY (peptide)
peptide: AQNLSIIQY
- peptide exchange yield: 20 to 50%

B62: GESQDSTTAL (peptide)
peptide: GESQDSTTAL
- peptide exchange yield: 20 to 50%

B63: RMPPFTQAF (peptide)
peptide: RMPPFTQAF
- peptide exchange yield: 20 to 50%

B64: SEGDNVESW (peptide)
peptide: SEGDNVESW
- peptide exchange yield: 50 to 75%

B65: NEQKIVRF (peptide)
peptide: NEQKIVRF
- peptide exchange yield: 10 to 20%

B66: SDAQRPSSF (peptide)
peptide: SDAQRPSSF
- peptide exchange yield: 10 to 20%

B67: KEFFFVKVF (peptide)
peptide: KEFFFVKVF
- peptide exchange yield: 50 to 75%
